Data: paper PMC10030117 (eLife, 2023)

Target: Authentic MERS spike, full-length unstabilized, on the cell surface (MERS-CoV, strain , UniProt K9N5Q8)
Experiment: flow cytometry on cells
Conditions: one partner purified

Chain of Authentic MERS spike, full-length unstabilized, on the cell surface (K9N5Q8 18-1353): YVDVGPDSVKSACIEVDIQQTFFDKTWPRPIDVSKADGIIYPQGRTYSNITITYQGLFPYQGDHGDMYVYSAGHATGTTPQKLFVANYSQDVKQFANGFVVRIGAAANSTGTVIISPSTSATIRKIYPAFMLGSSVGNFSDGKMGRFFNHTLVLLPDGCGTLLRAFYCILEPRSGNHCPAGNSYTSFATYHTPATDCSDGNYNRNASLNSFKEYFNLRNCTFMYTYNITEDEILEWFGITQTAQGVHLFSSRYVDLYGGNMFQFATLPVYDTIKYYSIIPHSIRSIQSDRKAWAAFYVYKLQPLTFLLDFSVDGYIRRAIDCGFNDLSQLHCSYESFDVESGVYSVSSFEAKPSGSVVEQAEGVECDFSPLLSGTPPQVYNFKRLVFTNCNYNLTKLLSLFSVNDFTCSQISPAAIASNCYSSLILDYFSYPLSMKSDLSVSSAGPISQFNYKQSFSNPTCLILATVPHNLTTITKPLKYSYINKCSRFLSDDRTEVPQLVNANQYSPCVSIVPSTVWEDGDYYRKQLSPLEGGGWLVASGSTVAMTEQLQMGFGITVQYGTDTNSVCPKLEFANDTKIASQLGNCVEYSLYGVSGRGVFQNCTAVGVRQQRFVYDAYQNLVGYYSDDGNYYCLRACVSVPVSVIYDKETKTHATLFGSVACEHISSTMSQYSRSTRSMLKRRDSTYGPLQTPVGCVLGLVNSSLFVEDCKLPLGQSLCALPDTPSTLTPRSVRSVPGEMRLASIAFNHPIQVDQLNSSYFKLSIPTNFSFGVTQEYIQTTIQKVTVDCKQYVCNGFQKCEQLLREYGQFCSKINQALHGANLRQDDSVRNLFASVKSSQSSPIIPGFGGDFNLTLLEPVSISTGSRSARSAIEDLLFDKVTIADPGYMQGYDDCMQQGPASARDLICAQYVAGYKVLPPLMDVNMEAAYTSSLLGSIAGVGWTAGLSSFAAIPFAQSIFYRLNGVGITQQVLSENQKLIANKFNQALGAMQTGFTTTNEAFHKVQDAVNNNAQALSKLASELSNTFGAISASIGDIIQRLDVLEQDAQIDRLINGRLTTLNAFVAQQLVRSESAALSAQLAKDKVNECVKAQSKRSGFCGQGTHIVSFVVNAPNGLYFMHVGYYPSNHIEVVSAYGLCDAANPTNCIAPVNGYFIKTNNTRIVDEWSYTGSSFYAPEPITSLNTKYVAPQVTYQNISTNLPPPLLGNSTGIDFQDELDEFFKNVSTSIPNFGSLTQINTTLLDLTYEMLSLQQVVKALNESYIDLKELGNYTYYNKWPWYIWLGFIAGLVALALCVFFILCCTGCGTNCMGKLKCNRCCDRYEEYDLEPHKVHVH

B1: Antibody RAY53, full-length human IgG1 (antibody, V domains shown)
VH: QVQLVQSGAVVLKPGASVKLSCKASGFNIKNTYIHWLKQAPGQRLEWIGRIGPAIGNTIYAPKFQGKATITTDTSASTAYLELSSLRSEDTAVYYCARYYGSSYYYLDYWGQGTTVTVSS
VL: DIVMTQSPLSVPVTPGEPVSISCRSSKSLLHSNGNTYLYWFLQKPGQSPQLLIARMSTLASGVPDRFSGSGSGTAFTLKISRVEAEDVGVYYCMQYLEYPLTFGAGTKLEIK
- binding result: binds
